Test results as given in article PMC8825603 (Theranostics, 2022).

Tests used:
Experiment in all cases: cellular equilibrium binding of GpL (luciferase)-tagged antibody variants; HEK293 cells transiently transfected with a CD40, 41BB or PD-L1 expression plasmid; increasing concentrations of GpL-tagged antibody variants (cell culture supernatants); 37 °C, 1.5 h; washed three times with ice cold PBS; binding to empty vector cells subtracted; one site specific binding fit
Details in all cases: partners not purified
CD40 = molecular target: T1, CD40 (Homo sapiens (species ), UniProt P25942)
T1 construct: CD40, expressed on HEK293 cells from an expression plasmid (gift of Pascal Schneider); also called cluster of differentiation 40; source: HEK293, transiently transfected with a CD40 expression plasmid, on cells

41BB = molecular target: T2, 41BB (Homo sapiens (species ), UniProt Q07011)
T2 construct: 41BB, expressed on HEK293 cells from an expression plasmid (gift of Pascal Schneider); source: HEK293, transiently transfected with a 41BB expression plasmid, on cells

PDL1 [1] = molecular target: T3, PDL1 (UniProt Q9NZQ7)
T3 construct: PDL1, expressed on HEK293 cells from the expression plasmid pCMV6-XL4 (Origene Technologies); also called PD1 Ligand 1; PD1L; source: HEK293, transiently transfected with a PDL1 expression plasmid (pCMV6-XL4, Origene), on cells

PDL1 [2] = molecular target: T3, PDL1; remark: listed apart in the source

T3 sequence (Q9NZQ7 19-290): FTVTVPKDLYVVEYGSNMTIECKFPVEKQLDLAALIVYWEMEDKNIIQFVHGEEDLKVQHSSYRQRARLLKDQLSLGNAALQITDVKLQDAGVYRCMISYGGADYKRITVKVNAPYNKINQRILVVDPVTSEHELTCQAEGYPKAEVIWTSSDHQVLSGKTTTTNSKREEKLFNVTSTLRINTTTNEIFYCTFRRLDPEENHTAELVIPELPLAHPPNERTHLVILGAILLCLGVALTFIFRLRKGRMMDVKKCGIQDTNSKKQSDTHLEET
T2 sequence (Q07011 24-255): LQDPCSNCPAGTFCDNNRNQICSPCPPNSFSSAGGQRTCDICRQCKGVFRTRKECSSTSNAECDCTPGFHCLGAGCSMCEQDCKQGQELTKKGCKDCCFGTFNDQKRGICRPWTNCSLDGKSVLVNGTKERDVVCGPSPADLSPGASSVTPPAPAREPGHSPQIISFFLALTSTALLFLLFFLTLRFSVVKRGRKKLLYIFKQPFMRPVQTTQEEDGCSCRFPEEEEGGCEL
T1 sequence (P25942 21-277): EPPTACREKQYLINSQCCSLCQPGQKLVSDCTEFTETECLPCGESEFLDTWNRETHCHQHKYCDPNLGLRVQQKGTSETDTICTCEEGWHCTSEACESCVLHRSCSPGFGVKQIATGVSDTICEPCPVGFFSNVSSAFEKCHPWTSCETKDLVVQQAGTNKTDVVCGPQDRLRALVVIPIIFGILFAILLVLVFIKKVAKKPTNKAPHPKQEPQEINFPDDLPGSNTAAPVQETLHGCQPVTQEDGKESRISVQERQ

binding result (PDL1 [1]) | binding result (PDL1 [2]) | Binder | other results
– | no binding | αCD40-Fab2-GpL (Fab, V domains shown, VH of the anti-CD40 antibody C; linker L6; CH1: constant heavy chain of human IgG1, aa 145-260 of GenBank AAA02914.1; numbers count on: GenBank AAA02914.1; VL of the anti-CD40 antibody C; linker L4; constant light chain, aa 105-214 of GenBank BAA97671.1; numbers count on: GenBank BAA97671.1; Bivalent Fab2 format; source: HEK293, transiently transfected (PEI), cell culture supernatant; copies: 2 + …) VH: QVQLVQSGAEVKKPGASVKVSCTASGFNIKDYYVHWVKQAPGQGLEWMGRIDPEDGDSKYAPKFQGKATMTADTSTSTVYMELSSLRSEDTAVYYCTTSYYVGTYGYWGQGTLVTVSS VL: DIQMTQSPSSLSASVGDRVTITCSASSSVSYMLWFQQKPGKAPKLLIYSTSNLASGVPSRFSGSGSGTDFTLTISSLQPEDFATYYCQQRTFYPYTFGGGTKVEIK | –
– | no binding | αCD40-N297A-GpL (antibody, V domains shown, VH of the anti-CD40 antibody C; linker L6; constant heavy chain of human IgG1, aa 145-476 of GenBank AAA02914.1, with N297A (the footnote prints 'A to N mutation at position 327'); VL of the anti-CD40 antibody C; linker L4; constant light chain, aa 105-214 of GenBank BAA97671.1; numbers count on: GenBank BAA97671.1; IgG1(N297A); also called αCD40-IgG1(N297A); source: HEK293, transiently …) VH: QVQLVQSGAEVKKPGASVKVSCTASGFNIKDYYVHWVKQAPGQGLEWMGRIDPEDGDSKYAPKFQGKATMTADTSTSTVYMELSSLRSEDTAVYYCTTSYYVGTYGYWGQGTLVTVSS VL: DIQMTQSPSSLSASVGDRVTITCSASSSVSYMLWFQQKPGKAPKLLIYSTSNLASGVPSRFSGSGSGTDFTLTISSLQPEDFATYYCQQRTFYPYTFGGGTKVEIK | –

The remaining lines, values behind:

Binder | binding result (PDL1 [1]) | binding result (PDL1 [2]) | other results
αPDL1-N297A-GpL (antibody, V domains shown, VH of the anti-PDL1 antibody Avelumab; linker L6; constant heavy chain of human IgG1, aa 145-476 of GenBank AAA02914.1, with N297A (the footnote prints 'A to N mutation at position 327'); VL of the anti-PDL1 antibody Avelumab; linker L4; constant light chain, aa 105-214 of GenBank BAA97671.1; numbers count on: GenBank BAA97671.1; IgG1(N297A); also called αPDL1-IgG1(N297A); parental anti-PDL1 …) VH: EVQLLESGGGLVQPGGSLRLSCAASGFTFSSYIMMWVRQAPGKGLEWVSSIYPSGGITFYADTVKGRFTISRDNSKNTLYLQMNSLRAEDTAVYYCARIKLGTVTTVDYWGQGTLVTVSS VL: QSALTQPASVSGSPGQSITISCTGTSSDVGGYNYVSWYQQHPGKAPKLMIYDVSNRPSGVSNRFSGSKSGNTASLTISGLQAEDEADYYCSSYTSSSTRVFGTGTKVTVL | – | – | binding result (CD40): no binding; binding result (41BB): no binding
α41BB-Fab2-GpL (Fab, V domains shown, VH of the anti-41BB antibody HBBK4; linker L6; CH1: constant heavy chain of human IgG1, aa 145-260 of GenBank AAA02914.1; numbers count on: GenBank AAA02914.1; VL of the anti-41BB antibody HBBK4; linker L4; constant light chain, aa 105-214 of GenBank BAA97671.1; numbers count on: GenBank BAA97671.1; Bivalent Fab2 format; source: HEK293, transiently transfected (PEI), cell culture supernatant; …) VH: QVQLQQSGAEVIKPGASVKLSCKASGYTFSSYWMHWVRQAPGQGLEWIGEINPGNGHTNYNEKFKSRATLTGDTSTSTVYMELSSLRSEDTAVYYCARSFTTARAFAYWGQGTLVTVSS VL: DIVMTQSPAFLSVTPGEKVTITCRASQTISDYLHWYQQKPDQAPKLLIKYASQSISGIPSRFSGSGSGTDFTFTISSLEAEDAATYYCQDGHSFPPTFGQGTKLEIK | no binding | – | –
α41BB-N297A-GpL (antibody, V domains shown, VH of the anti-41BB antibody HBBK4; linker L6; constant heavy chain of human IgG1, aa 145-476 of GenBank AAA02914.1, with N297A (the footnote prints 'A to N mutation at position 327'); VL of the anti-41BB antibody HBBK4; linker L4; constant light chain, aa 105-214 of GenBank BAA97671.1; numbers count on: GenBank BAA97671.1; IgG1(N297A); also called α41BB-IgG1(N297A); source: HEK293, transiently …) VH: QVQLQQSGAEVIKPGASVKLSCKASGYTFSSYWMHWVRQAPGQGLEWIGEINPGNGHTNYNEKFKSRATLTGDTSTSTVYMELSSLRSEDTAVYYCARSFTTARAFAYWGQGTLVTVSS VL: DIVMTQSPAFLSVTPGEKVTITCRASQTISDYLHWYQQKPDQAPKLLIKYASQSISGIPSRFSGSGSGTDFTFTISSLEAEDAATYYCQDGHSFPPTFGQGTKLEIK | no binding | – | –
